This is an account of results in patent US8187838B2, “β-Galactoside-α2, 6-sialyltransferase, a gene encoding thereof, and a method for producing thereof” (Japan Tobacco Inc., priority 2006, dated 2012).

Entries after “also recorded” stand apart in the source; their conditions may differ.

The nature of data set [1]: Optimum pH, temperature and salt concentration for enzyme activity. It is filed as biochemical. How it is done:
The purified enzyme prepared in Example 4-1 was used to examine the optimum pH, optimum temperature and optimum salt concentration for JT-ISH-224-derived recombinant β-galactoside-α2,6-sialyltransferase N1C0.
Acetate buffer (pH 4.0, pH 4.5 and pH 5.0), cacodylate buffer (pH 5.0, pH 5.5, pH 6.0, pH 6.5 and pH 7.0), phosphate buffer (pH 7.0, pH 7.5 and pH 8.0) and TAPS buffer (pH 8.0, pH 8.5 and pH 9.0) were prepared and used for enzyme activity measurement at 25° C. at various pH values.
The enzyme activity was measured at an interval of 5° C. starting from 10° C. up to 50° C. using cacodylate buffer (pH 5.0).
The enzyme activity was measured at 30° C. using cacodylate buffer (pH 5.0) by adjusting the NaCl concentration in the reaction solution to 0 M, 0.1 M, 0.25 M, 0.5 M, 0.75 M, 1.0 M, 1.5 M or 2.0 M.

Data set [2] can be described thus: Sialyltransferase activity in homogenate of E. coli carrying the JT-ISH-224 gene clones (14C-NeuAc transfer to lactose). It is filed as biochemical. How it is done: Sialyltransferase activity was measured as described in J. Biochem., 120, 104-110 (1996) (which is hereby incorporated by reference in its entirety). More specifically, the enzymatic reaction was accomplished by using CMP-NeuAc (70 nmol, containing about 20,000 cpm CMP-NeuAc in which NeuAc was labeled with ^14C; NeuAc represents N-acetylneuraminic acid) as a glycosyl donor substrate, lactose (1.25 μmol) as a glycosyl acceptor substrate, NaCl added to give a concentration of 0.5 M, and the enzyme-containing reaction solution (30 μl) prepared as described above. The enzymatic reaction was carried out at 25° C. for about 10 to 180 minutes. After completion of the reaction, 1.97 ml of 5 mM phosphate buffer (pH 6.8) was added to the reaction solution, which was then applied to a Dowex 1×8 (PO4^3− form, 0.2×2 cm, BIO-RAD) column. The radioactivity was measured for the reaction product, i.e., sialyllactose contained in the eluate (0 to 2 ml) from this column to calculate the enzyme activity. One enzyme unit (1 U) is defined as the amount of enzyme required to transfer 1 micromole of sialic acid per minute.
An induction experiment of protein expression was performed on the five clones obtained in (3) above (i.e., ISH224-N0C0/pTrc, ISH224-N1C0/pTrc, ISH224-N2C0/pTrc, ISH224-N3C0/pTrc and ISH224-N3.1C0/pTrc). A single colony of E. coli TB1 having the expression vector pTrc99A carrying each clone was inoculated into LB medium (6 ml) containing an antibiotic, ampicillin (final concentration 100 μg/mL), and pre-cultured at 30° C. to about A600=0.5, followed by addition of IPTG (isopropyl-β-D(−)-thiogalactopyranoside, Wako Pure Chemical Industries, Ltd., Japan) at a final concentration of 1 mM. After culturing with shaking at 30° C. for an additional 4 hours, the cells in 4 ml culture solution were collected by centrifugation. These cells were suspended in 200 μl of 20 mM Bis-Tris buffer (pH 7.0) containing 0.336% Triton® X-100 and 0.5 M sodium chloride, and ultrasonically homogenized under ice cooling. The resulting homogenate was defined as a crude enzyme solution, diluted 200-fold with 20 mM cacodylate buffer (pH 5.0) containing 0.336% Triton® X-100, and then provided for activity measurement. The reaction was carried out in duplicate. The reaction conditions are as indicated in the footnotes of Tables 1-1 and 1-2.
Reaction Conditions Reaction composition:
Reaction time: 2 minutes Reaction temperature: 30° C.

B1: ISH224-N1C0 (protein, listed as Photobacterium sp.)
chain: MSEENTQSIIKNDINKTIIDEEYVNLEPINQSNISFTKHSWVQTCGTQQLLTEQNKESISLSVVAPRLDDDEKYCFDFNGVSNKGEKYITKVTLNVVAPSLEVYVDHASLPTLQQLMDIIKSEEENPTAQRYIAWGRIVPTDEQMKELNITSFALINNHTPADLVQEIVKQAQTKHRLNVKLSSNTAHSFDNLVPILKELNSFNNVTVTNIDLYDDGSAEYVNLYNWRDTLNKTDNLKIGKDYLEDVINGINEDTSNTGTSSVYNWQKLYPANYHFLRKDYLTLEPSLHELRDYIGDSLKQMQWDGFKKFNSKQQELFLSIVNFDKQKLQNEYNSSNLPNFVFTGTTVWAGNHEREYYAKQQINVINNAINESSPHYLGNSYDLFFKGHPGGGIINTLIMQNYPSMVDIPSKISFEVLMMTDMLPDAVAGIASSLYFTIPAEKIKFIVFTSTETITDRETALRSPLVQVMIKLGIVKEENVLFWADLPNCETGVCIAV
As to B1, in data set [1] (25° C., acetate, cacodylate, phosphate, TAPS buffers pH 4.0-9.0), the “pH of maximum enzyme activity (optimum pH)” value is on record as 5.0. The “temperature of maximum enzyme activity (optimum temperature)” value in data set [1] (cacodylate buffer (pH 5.0), 10° C. to 50° C.) is 30 °C. Further, the “Radioactivity (cpm) Round 1” value in data set [2] (crude enzyme solution diluted 200-fold, lactose, 14C-CMP-sialic acid, 2 minutes, 30° C., Round 1) came out at 1552 cpm. Also, the “Radioactivity (cpm) Round 2” value in data set [2] (crude enzyme solution diluted 200-fold, lactose, 14C-CMP-sialic acid, 2 minutes, 30° C., Round 2) was 1711 cpm. The “Radioactivity (cpm) Average” value in data set [2] (crude enzyme solution diluted 200-fold, lactose, 14C-CMP-sialic acid, 2 minutes, 30° C., average of duplicate) stood at 1631.5 cpm. Also, in data set [2] (crude enzyme solution from E. coli TB1, listed as ISH224-N1C0/pTrc), the “sialyltransferase activity of the expressed clone (in words)” value is “expressed sialyltransferase; also recorded: retained the activity”.
